Details in all cases: 20 nM; 72 h
Data set [1] relates to MCF10A. Briefly: one-nucleolus phenotype percent effect (relative to siNT 0% and siNOL11 100%); higher = more cells with one nucleolus (ribosome biogenesis inhibition). The procedure: (§1)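 After 72 h, cells were fixed and stained with Hoechst and anti-fibrillarin, and nucleoli per nucleus were counted with CellProfiler. Values are plate-adjusted percent effect for the one-nucleolus and 5+ nucleoli phenotypes, normalised to siNT (0%) and to the positive controls siNOL11 or siKIF11 (100%), as the mean of biological triplicates. Percent viability is the nuclei count relative to siNT.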

For data set [2], the system named is MCF10A. Briefly: 5+ nucleoli phenotype percent effect (relative to siNT 0% and siKIF11 100%); higher = more cells with five or more nucleoli. The procedure: as §1
The test system of data set [3] is MCF10A. Briefly: percent viability (nuclei count relative to siNT); higher = more viable cells. As for the experimental part: as §1

On to “AAGGCCCGGGCUUUCCUCCCAG [hsa-miR-4747-3p]”, for which the “one-nucleolus phenotype percent effect” value in data set [1] was found to be 31.7%. In addition, the “5+ nucleoli phenotype percent effect” value in data set [2] is -14.1%. Moreover, the percent viability in data set [3] came out at 29.2%.
For GAAGACUUCUUGGAUUACAGGGG [hsa-miR-8087] the same measures were 2.61%, -8.56% and 112%.
For “AAUCUGAGAAGGCGCACAAGGU [hsa-miR-3200-5p]” the same measures were 2.91%, -28.4% and 32.7%.
For AAAGGUAAUUGCAGUUUUUCCC [hsa-miR-548ai] the same measures were -23.8%, 16.1% and 155%.
With UGAGGGAGGAGGUUGGGUA [hsa-miR-6133], in data set [1], the “one-nucleolus phenotype percent effect” value was 1.81%. Further, the “5+ nucleoli phenotype percent effect” value in data set [2] is -0.793%. For the same sequence, in data set [3], the percent viability came out at 17.2%.
For AUCGCUGCGGUUGCGAGCGCUGU [hsa-miR-639], the “one-nucleolus phenotype percent effect” value in data set [1] is -17.2%. Besides, the “5+ nucleoli phenotype percent effect” value in data set [2] came out at 61.4%. Also, the percent viability in data set [3] turned out to be 129%.
Taken in the same sequence, the figures for “CAGGGCAGGGAAGGUGGGAGAG [hsa-miR-6879-5p]” were -11.1%, 36.6% and 67.3%.
Taken in the same sequence, the figures for “UUUAGUGUGAUAAUGGCGUUUGA [hsa-miR-3591-5p]” were 11.5%, 0.56% and 39.6%.
Taken in the same sequence, the figures for “GUGCAUGGCUGUAUAUAUAACA [hsa-miR-5011-3p]” were 0.75%, 19.5% and 56.9%.
Consider “CCUGCAACUUUGCCUGAUCAGA [hsa-miR-4772-3p]”, for which the “one-nucleolus phenotype percent effect” value in data set [1] was -15.1%. For the same sequence, in data set [2], the “5+ nucleoli phenotype percent effect” value amounted to 16.6%. Besides, the percent viability in data set [3] is 47.3%.
On to AGAGAUGAAGCGGGGGGGCG [hsa-miR-6088], for which the “one-nucleolus phenotype percent effect” value in data set [1] was -6.8%. For the same sequence, the “5+ nucleoli phenotype percent effect” value in data set [2] stood at 6.48%. Further, the percent viability in data set [3] was 91.6%.
Taken in the same sequence, the figures for UGAGCCUCUCCUUCCCUCCAG [hsa-miR-6823-3p] were -2.85%, 12.9% and 31.2%.
Taken in the same sequence, the figures for “UGAUCUCACCGCUGCCUCCUUC [hsa-miR-4695-3p]” were -9.6%, 12.8% and 93.9%.
Taken in the same sequence, the figures for “UCUUGGAGUAGGUCAUUGGGUGG [hsa-miR-432-5p]” were 28.2%, -33.5% and 34.1%.
In the case of “AAGCCCUUACCCCAAAAAGUAU [hsa-miR-129-1-3p]”, in data set [1], the “one-nucleolus phenotype percent effect” value was 23.6%. The “5+ nucleoli phenotype percent effect” value in data set [2] is -37.4%. Moreover, the percent viability in data set [3] is 54.9%.
Consider “UAGGUGGCAGAGGAGGGACUUCA [hsa-miR-6865-5p]”, for which the “one-nucleolus phenotype percent effect” value in data set [1] came to 20.5%. For the same sequence, the “5+ nucleoli phenotype percent effect” value in data set [2] was -3.22%. Also, the percent viability in data set [3] stood at 11.7%.
For CACGGCAAAAGAAACAAUCCA [hsa-miR-4445-3p] the same measures were -16.4%, 25.7% and 52.2%.
For “ACUGGGUAGGUGGGGCUCCAGG [hsa-miR-6861-5p]”, the “one-nucleolus phenotype percent effect” value in data set [1] came to 6.88%. Besides, in data set [2], the “5+ nucleoli phenotype percent effect” value was -15.5%. Also, the percent viability in data set [3] came out at 31.9%.
Taken in the same sequence, the figures for CUAUACAAUCUACUGUCUUUC [hsa-let-7a-3p] were -10.4%, 10.6% and 93.9%.
Regarding “ACGGGUUAGGCUCUUGGGAGCU [hsa-miR-125b-1-3p]”, the “one-nucleolus phenotype percent effect” value in data set [1] is 13.6%. In addition, the “5+ nucleoli phenotype percent effect” value in data set [2] is 15.9%. The percent viability in data set [3] stood at 53.9%.
Taken in the same sequence, the figures for ACUGGACUUGGAGUCAGAAGG [hsa-miR-378a-3p] were 2.26%, 22.6% and 45.2%.
For UCUGGCUGUUGUGGUGUGCAA [hsa-miR-3064-5p] the same measures were 46.2%, -22.7% and 17.8%.
Taken in the same sequence, the figures for CAGCAGUCCCUCCCCCUG [hsa-miR-4274] were 6.47%, 7.99% and 34.1%.
In the case of CUGCAAAGGGAAGCCCUUUC [hsa-miR-527], the “one-nucleolus phenotype percent effect” value in data set [1] came to 46.6%. For the same sequence, the “5+ nucleoli phenotype percent effect” value in data set [2] was -41.4%. Further, the percent viability in data set [3] worked out at 32.8%.
UCUGAGUUCCUGGAGCCUGGUCU [hsa-miR-4682]: the “one-nucleolus phenotype percent effect” value in data set [1] was -20%. In addition, the “5+ nucleoli phenotype percent effect” value in data set [2] came to 18.8%. Also, in data set [3], the percent viability was found to be 104%.
Taken in the same sequence, the figures for “CAUCUUACCGGACAGUGCUGGA [hsa-miR-200a-5p]” were 5.98%, -26% and 56%.
Taken in the same sequence, the figures for UGUCUCUGCUGGGGUUUCU [hsa-miR-593-3p] were 55.4%, -39.2% and 18.1%.
For “CCACGUGCUUCUCUUUCCGCAG [hsa-miR-6767-3p]” the same measures were 13.2%, -26% and 69%.
Turning to AGGAAUGUUCCUUCUUUGCC [hsa-miR-613], in data set [1], the “one-nucleolus phenotype percent effect” value stood at 36.5%. Besides, in data set [2], the “5+ nucleoli phenotype percent effect” value is -37.9%. Further, the percent viability in data set [3] was determined as 44.4%.
On to “UGAUUGUCUUCAUAUCUAGAAC [hsa-miR-4782-3p]”, for which the “one-nucleolus phenotype percent effect” value in data set [1] is -0.93%. Further, in data set [2], the “5+ nucleoli phenotype percent effect” value is -13.9%. For the same sequence, the percent viability in data set [3] came to 62%.
Regarding CAAAGCGCUCCCCUUUAGAGGU [hsa-miR-518b], in data set [1], the “one-nucleolus phenotype percent effect” value is 61.9%. The “5+ nucleoli phenotype percent effect” value in data set [2] was -39.6%. Further, the percent viability in data set [3] was determined as 27.8%.
Taken in the same sequence, the figures for CCUGGAAACACUGAGGUUGUG [hsa-miR-875-3p] were -26.1%, 37.4% and 155%.
Taken in the same sequence, the figures for UGACUGCCUCACUGACCACUU [hsa-miR-5002-3p] were -1.84%, -20.8% and 50.5%.
For UCAGUAAAUGUUUAUUAGAUGA [hsa-miR-545-5p] the same measures were -24.2%, 38.8% and 175%.
Regarding “AACUGGCCCUCAAAGUCCCGCU [hsa-miR-193b-3p]”, the “one-nucleolus phenotype percent effect” value in data set [1] stood at 24.4%. Besides, in data set [2], the “5+ nucleoli phenotype percent effect” value was -6.55%. For the same sequence, the percent viability in data set [3] worked out at 16.9%.
Taken in the same sequence, the figures for “CUGCAAUGUAAGCACUUCUUAC [hsa-miR-106a-3p]” were 18.7%, -24.5% and 72.6%.
Taken in the same sequence, the figures for UUGCUUGAACCCAGGAAGUGGA [hsa-miR-1273e] were 53.6%, -48.1% and 29%.
Turning to “UGGGAUGAGGGAUUGAAGUGGA [hsa-miR-5187-5p]”, the “one-nucleolus phenotype percent effect” value in data set [1] is -17.7%. In addition, the “5+ nucleoli phenotype percent effect” value in data set [2] is 24.8%. The percent viability in data set [3] came out at 25.8%.
As to “AGGGGACCAAAGAGAUAUAUAG [hsa-miR-3144-5p]”, the “one-nucleolus phenotype percent effect” value in data set [1] is -9.41%. In addition, the “5+ nucleoli phenotype percent effect” value in data set [2] came out at 33.4%. The percent viability in data set [3] came to 38.1%.
Taken in the same sequence, the figures for UCAUUUUUGUGAUGUUGCAGCU [hsa-miR-153-5p] were -16.7%, 3.53% and 55%.
For AGGCGGGGCGCCGCGGGACCGC [hsa-miR-663a] the same measures were 0.191%, 2.91% and 62.8%.
For GUCAUACACGGCUCUCCUCUCU [hsa-miR-485-3p], the “one-nucleolus phenotype percent effect” value in data set [1] was -9.37%. Also, the “5+ nucleoli phenotype percent effect” value in data set [2] is -1.94%. In addition, the percent viability in data set [3] came to 54.4%.
With AAUAAUAUCACAGUAGGUGU [hsa-miR-5692b], in data set [1], the “one-nucleolus phenotype percent effect” value is -19.9%. Moreover, the “5+ nucleoli phenotype percent effect” value in data set [2] turned out to be 46.7%. For the same sequence, in data set [3], the percent viability is 155%.
For GCUGGGAUUACAGGCAUGAGCC [hsa-miR-619-5p] the same measures were -9.05%, 19% and 50%.
Take AGCCCCUGCCCACCGCACACUG [hsa-miR-210-5p]: the “one-nucleolus phenotype percent effect” value in data set [1] was -21%. In addition, in data set [2], the “5+ nucleoli phenotype percent effect” value was 53%. The percent viability in data set [3] was 101%.
For GAUCUCACUUUGUUGCCCAGG [hsa-miR-1285-5p] the same measures were -20.8%, 15.8% and 43.4%.
For UGAUGGAUAAAAGACUACAUAUU [hsa-miR-3134] the same measures were 23.3%, -19.7% and 27.6%.
For UCUUCAACCUCAGGACUUGCA [hsa-miR-676-5p] the same measures were -20.5%, 37.9% and 56%.

The values are drawn from the supplement of paper PMC10899765.
